Patent publication US20160000054A1, “HUMAN-DERIVED MUTANTS OF THE dSOD1 GENE IN DROSOPHILA AND METHODS OF MAKING AND USING” (priority 2014, published 2016)

Experiments:
Type in all cases: in vivo, Drosophila melanogaster
[1] = test system: dSod1-G85R and dSod1-H71Y mutant larvae; assay: Larval locomotor (motility) defect in dSod1 mutant larvae; settings: expression of Gbb
Source text: (§1) The genetically accurate model of ALS disclosed herein, can be used to elucidate not only the behavioral and electrophysiological changes, but also the cellular and molecular basis of disease progression. ALS-associated loss in motor neuron function and subsequent cell death has been attributed to defects in a number of processes from protein aggregation, increases is axonal membrane excitability, mitochondrial dysfunction, to changes in RNA metabolism and general metabolic homeostasis (49-55). This model system was used to explore the involvement of these processes in disease progression. […] The time of death varied between the different dSod1 mutations with <0.1% dSod1-G85R adults emerging from the pupal case (a feat requiring considerable muscle strength) to 33% emergence by the less severe dSod1-H71Y followed by death within 7-10 days of adulthood. […] Characterization of this progressive loss in motor function in detail during can be performed using immunohistochemical markers of muscle, as well as Drosophila lines expressing GFP-tagged muscle proteins (Mhc-mCD8-GFP) that allow visualization of muscles in living animals. Examination of the innervation of the muscles in controls and mutants is done by concomitant labeling of the MNs (CD8-RFP driven in MNs). […]

G85R/H71Y = assay: Adult eclosion (emergence from the pupal case); settings: G85R/H71Y flies; expression of Gbb; 15% without Gbb
Source text: as §1

dSod1-G85R mutants = assay: Spontaneous motor neuron activity recorded from larval muscles with motor circuit intact; settings: expression of Gbb
Source text: Consistent with the reduced motility observed in dSod1-G85R late 3rd instar larvae, there was a concordant reduction in the spontaneous activity of MNs when recorded from larval muscles in preparations with the motor circuit intact (brain and ventral nerve cord (VNC) remain attached to the body wall muscles). […] These analyses, coupled with studies on muscle structure can provide a well-defined depiction of disease progression. While ALS paralysis results from a dramatic degeneration of MNs and atrophied muscles, it is unclear when and where the decline in function originates. It could begin in a specific set of cells or the loss of function could be a systemic effect. This can be addressed using the Drosophila model system disclosed herein. For example, directed expression of channel-rhodopsin (ChR2) to specific cells or neurons can be done, followed by excitation of those cells with a flash of light and recording of the response in the circuit output of a particular larval muscle. Driving UAS-ChR2 within different neurons (OK371Gal4 in motorneurons, ChaGal4 in cholinergic neurons, specific neural Gal4 lines from Janeila Farm collection) (55) can be done to address the integrity of the neural circuit and interrogate the function of individual neurons.
Gbb, the Drosophila orthologue of vertebrate BMPs 5, 6, 7, acted as a retrograde signal at the NMJ (56). […]

B1: Gbb: the Drosophila orthologue of vertebrate BMPs 5, 6, 7; expressed genetically in the flies, not dosed (protein, UniProt P27091 336-455, looked up)
Protein 60A: SVSPNNVPLLEPMESTRSCQMQTLYIDFKDLGWHDWIIAPEGYGAFYCSGECNFPLNAHMNATNHAIVQTLVHLLEPKKVPKPCCAPTRLGALPVLYHLNDENVNLKKYRNMIVKSCGCH
[1]; dSod1-G85R mutant larvae
  locomotor defect: rescued
[1]; dSod1-H71Y mutant larvae
  locomotor defect: rescued
G85R/H71Y
  eclosion: 45%
dSod1-G85R mutants
  spontaneous MN activity: restored normal spontaneous MN activity
